Data published in patent US20060286032A1, “A radiosotope-chitosan complex for treatment of prostate cancer” (priority 2003, published 2006).
Entries after “also recorded” stand apart in the source; their conditions may differ. Marks after values point to notes of the source that are not given here.

Columns and labels:
[1] = Cumulative urinary and fecal excretion of radioactivity for 72 hrs after injection into the prostate gland; assay type: in vivo, SD rats; conditions: for Radioactivity remaining in Carcass / Radioactivity remaining in Prostate gland: 72 hr; for Total recovery rate: 72 hrs
Description: After the complex solution was administered to the prostate gland, cumulative urinary and fecal excretions of radioactivity were examined to investigate the amount of excreted ^166Ho. 25 μl of the test drug was administered to the prostate gland of SD rats, which was equal to about 100 μCi. The amount of radioactivity excreted for 72 hrs was measured. The rats were kept in metabolic cages made of a stainless material. Urine and feces were collected, and, 72 hrs after administration, the rats were sacrificed with diethylether. Radioactivity remaining in the carcass and the prostate gland was also measured.

[2] = system: DU-145 carcinoma cell line (hormone-independent prostate carcinoma cell line); test: Antitumor effect in DU-145 subcutaneous tumor model, intratumoral injection; assay type: in vivo, nude mice; conditions: for Tumor volume after injection: intratumoral; for Tumor growth inhibition rate: last day of the test (2 wks), tumor volume vs control
Description: To investigate the effect of the complex on hormone-independent prostate cancer, a DU-145 carcinoma cell line (hormone-independent prostate carcinoma cell line), which is rarely produces prostate-specific antigen, was transplanted into nude mice and the antitumor effect of the complex was evaluated.
The DU-145 cells were cultured in 10% FBS (fetal bovine serum)-containing F-12K(Kaign's Modification of Ham's F-12 medium) in a 5% CO2 incubator at 37° C., and 2×10^5 cells/0.2 ml/head were subcutaneously transplanted into the lumbar portion of male 6-week nude mice. When the long axis of the tumor was about 1 cm long, the complex solution was intratumorally injected. The administration volume of the test drug was 0.2 ml. The mice were divided into four groups: a control group (no treatment); two administration groups administered with the complex solution at doses of 10 mCi and 20 mCi per 1 cm^3 tumor; and another administration group administered with a non-radioactive complex solution [Holmium-165 (^165Ho)-chitosan complex solution]. Two weeks after administration with the complex solution, the mice were histopathologically examined to evaluate the antitumor effect and toxicity to major organs of the complex.

[3] = system: AIT carcinoma (androgen-independent carcinoma cell line); test: Antitumor effect in AIT subcutaneous tumor model; assay type: in vivo, noble rats; conditions: for Tumor weight: four weeks after administration; for Tumor growth inhibition rate: four weeks, tumor weight vs control
Description: To evaluate the effect of the complex on hormone-independent prostate cancer, an AIT carcinoma (androgen-independent carcinoma cell line) was transplanted into noble rats, and the antitumor effect of the complex was examined.
An androgen-independent, prostate carcinoma cell line, AIT, which is derived from noble rats, was cultured in 10% FBS-containing DMEM at 37° under 5% CO2. The cultured carcinoma cells were suspended in sterile physiological saline at a density of 4×10^6 cells/ml, and 2×10^6 cells were subcutaneously transplanted into the lateral abdomen of male 5-week noble rats. When the long axis of the tumor was about 1 cm long (in this test, 14 days after transplantation), the rats were grouped according to the tumor mass. The kit prepared in Example 2 was used as a test drug, and was administered at the same dose as in Experimental Example 5, that is, 0.2 ml. The rats were divided into four groups: a control group (no treatment); two administration groups administered with the complex solution at 10 mCi and 20 mCi per 1 cm^3 tumor; and another administration group administered with a non-radioactive complex solution (Holmium-165 (^165Ho)-chitosan complex solution). Four weeks after administration with the complex solution, tumors were excised from the rats, and tumor growth inhibition rates were measured by weighing the tumors.

[4] = system: AIT prostate carcinoma cells; test: Antitumor effect in orthotopic tumor model, AIT transplanted into the prostate gland; assay type: in vivo, noble rats
Description: In addition to the subcutaneous tumor model tested in Experimental Example 6, the antitumor effect and side effects of the complex solution was examined in an orthotopic tumor model where AIT prostate carcinoma cells had been directly transplanted into the prostate gland. AIT cells were cultured in 10% FBS-containing DMEM at 37° under 5% CO2. The cultured carcinoma cells were suspended in sterile physiological saline at a density of 2×10^6 cells/0.05 ml. After noble rats were anesthetized with fentanyl and the abdomen was opened, 2×10^6 cells per rat were transplanted into the prostate gland of the rats. Seven days after carcinoma transplantation, the rats were randomly allocated. The kit prepared in Example 2 was used as a test drug, and 0.05 ml of the kit was administered. The rats were divided into four groups: a control group (no treatment); two administration groups administered with 0.5 mCi and 1.0 mCi of the complex solution; and another administration group administered with a non-radioactive complex solution (Holmium-165 (^165Ho)-chitosan complex solution). Two and four weeks after administration of the complex solution, the rats were sacrificed, and tumors were excised from the rats and weighed.

[5] = Histopathological examination of organs of rats of the orthotopic model (hematoxylin and eosin); assay type: in vivo, noble rats; conditions: for Histopathological changes in organs other than the tumor tissue (heart, lung, liver, kidney, spleen, testes, epididymis, seminal vesicle, bladder, rectum): last day of the test
From the text: (§1) From all rats tested in Experimental Example 7, which were sacrificed on the last day of the test, the heart, lung, liver, kidney, spleen, testes, epididymis, seminal vesicle, bladder, rectum and tumor tissues were excised, embedded in paraffin according to general tissue processing, and sectioned into a thickness of 3 μm. The tissue sections were subjected to double staining with hematoxylin and eosin and histopathologically examined.

[6] = system: AIT tumor transplanted into the prostate gland; test: Histopathological examination of tumor tissue of rats of the orthotopic model (hematoxylin and eosin); assay type: in vivo, noble rats
From the text: as §1

[7] = 0.5 mCi, four weeks after administration (FIG. 2 C and D)

Substance: Holmium-166 (^166Ho)-Chitosan Complex [complex solution]
- Cumulative excretion, Urine ([1]; 0-3 hr, animal 1): 0.03 % of dose
- Cumulative excretion, Urine ([1]; 0-3 hr, animal 2): 0.03 % of dose
- Cumulative excretion, Urine ([1]; 0-3 hr, animal 3): 0.04 % of dose
- Cumulative excretion, Urine ([1]; 0-6 hr, animal 1): 0.04 % of dose
- Cumulative excretion, Urine ([1]; 0-6 hr, animal 2): 0.04 % of dose
- Cumulative excretion, Urine ([1]; 0-6 hr, animal 3): 0.05 % of dose
- Cumulative excretion, Urine ([1]; 0-24 hr, animal 1): 0.11 % of dose
- Cumulative excretion, Urine ([1]; 0-24 hr, animal 2): 0.13 % of dose
- Cumulative excretion, Urine ([1]; 0-24 hr, animal 3): 0.17 % of dose
- Cumulative excretion, Feces ([1]; 0-72 hr, Mean): 0.11 % of dose
- Cumulative excretion, Urine ([1]; 0-72 hr, Mean): 0.35 % of dose
- Cumulative excretion, Feces ([1]; 0-72 hr, animal 3): 0.11 % of dose
- Radioactivity remaining in Carcass ([1]; Mean): 2.67 % of dose
- Radioactivity remaining in Prostate gland ([1]; Mean): 99.19 % of dose
- Radioactivity remaining in Carcass ([1]; animal 1): 2.32 % of dose
- Radioactivity remaining in Prostate gland ([1]; animal 1): 98.84 % of dose
- Radioactivity remaining in Carcass ([1]; animal 2): 3.27 % of dose
- Radioactivity remaining in Prostate gland ([1]; animal 2): 96.79 % of dose
- Radioactivity remaining in Carcass ([1]; animal 3): 2.42 % of dose
- Radioactivity remaining in Prostate gland ([1]; animal 3): 101.94 % of dose
- Total recovery rate ([1]; Mean): 99.65%
- Total recovery rate ([1]; animal 1): 99.23%
- Total recovery rate ([1]; animal 2): 97.27%
- Total recovery rate ([1]; animal 3): 102.46%
- Tumor volume after injection ([2]; 10 mCi per 1 cm^3 tumor, 1 wk): 0.48 ± 0.35 cm^3
- Tumor volume after injection ([2]; 10 mCi per 1 cm^3 tumor, 2 wks): 0.32 ± 0.20* cm^3
- Tumor growth inhibition rate ([2]; 10 mCi per 1 cm^3 tumor): 95.1%
- Tumor volume after injection ([2]; 20 mCi per 1 cm^3 tumor, 1 wk): 0.28 ± 0.04 cm^3
- Tumor volume after injection ([2]; 20 mCi per 1 cm^3 tumor, 2 wks): 0.09 ± 0.24* cm^3
- Tumor growth inhibition rate ([2]; 20 mCi per 1 cm^3 tumor): 98.6%
- Tumor growth inhibition rate ([2]; 20 mCi per 1 cm^3 tumor, listed as Complex): 98.6%
- Inhibitory activity against the tumor growth ([2]; subcutaneous tumor model): higher than 95%
- Tumor weight ([3]; 10 mCi per 1 cm^3 tumor): 2.1 ± 0.78 g
- Tumor growth inhibition rate ([3]; 10 mCi per 1 cm^3 tumor): 90.7%
- Tumor weight ([3]; 20 mCi per 1 cm^3 tumor): 0.7 ± 0.18 g
- Tumor growth inhibition rate ([3]; 20 mCi per 1 cm^3 tumor): 96.7%
- Inhibitory activity against the tumor growth ([3]; subcutaneous tumor model): higher than 90%
- Tumor weight ([4]; 0.5 mCi, 2 wks after administration): 0.45 ± 0.07 g
- Tumor weight ([4]; 0.5 mCi, 4 wks after administration): 1.58 ± 0.97 g
- Tumor weight ([4]; 1.0 mCi, 2 wks after administration): 0.49 ± 0.08 g
- Tumor weight ([4]; 1.0 mCi, 4 wks after administration): 1.09 ± 0.32 g
- Effect on tumor growth ([4]; two weeks after administration, listed as present complex): showed an inhibitory effect against the tumor growth; also recorded: the tumor growth was suppressed
- Histopathological changes in organs other than the tumor tissue (heart, lung, liver, kidney, spleen, testes, epididymis, seminal vesicle, bladder, rectum) ([5]; listed as present complex solution): no abnormalities in adjacent organs were found
- Histopathological changes in organs other than the tumor tissue (heart, lung, liver, kidney, spleen, testes, epididymis, seminal vesicle, bladder, rectum) ([5]; listed as radioisotope-chitosan complex): particular histopathological changes are not found
- Cellularity of the bone marrow and peripheral blood ([5]; rat, in vivo): not reduced
- Histopathology of the tumor, center of injection site [6, 7]: broad necrosis
- Tumor cells in injection site [6, 7]: all of tumor cells in injection site are necrotized
- Histopathology of the tumor tissue at the administration site ([6]; last day of the test): a large necrosis
